Results: patent US20240301086A1 (APTEVO RESEARCH AND DEVELOPMENT, published 2024)

Key:
[1] = target: T1, human CD3ε in the TCR/CD3 complex on Jurkat cells (human, UniProt P07766 23-207); assay: cell-based or functional assay
[2] = target: T1, human CD3ε in the TCR/CD3 complex on …; assay: flow cytometry, Jurkat cells (approximate calculation)
Protocol: Jurkat and C4-2B cells were labelled at approximately 100,000 cells per well, in 96-well plates, with serial dilutions of bispecific constructs ranging in concentration from of 0.1 to 300 nM, for 30 min on ice. Primary label was followed by washes and incubation with PE-labeled minimum cross species reactive secondary antibody, goat anti-human IgG Fcγ, F(ab′)2 (Jackson Laboratory) for 30 minutes on ice. Washes and incubation were done in staining buffer (PBS with 0.2% BSA and 2 mM EDTA). Cells were collected using an BD™ LSRII or a BD FACSymphony™ flow cytometer (BD Biosciences) and analyzed by FlowJo flow cytometry analysis software. Median fluorescence intensity (MFI) of bound molecules on cells was determined after exclusion of doublets. Results were plotted and nonlinear regression analysis to determine EC50 values was performed using GraphPad Prism 7® graphing and statistics software.
On Jurkat cells (FIG. 11B), a range of binding potencies was observed. […] Swapping the orientation of the CD3-binding domain from VH-VL (PSMA01071) to VL-VH (PSMA01086) further reduced binding to CD3 in the C-terminus. The maximum CD3-binding signal differed between the constructs with N-terminal CD3-binding domain constructs showing the highest maximum binding. However, potency (EC50) and not maximum binding correlated with function, as will be shown in the next example.

[3] = target: T2, Full-length Human PSMA (TSC435), on cells (human, UniProt Q04609 1-750); assay: flow cytometry on C4-2B cells, PE goat anti-human IgG Fc secondary, MFI (median)
T2 construct: also called CHOK1SV/huPSMA; PSMA on C4-2B, 22RV1, LNCaP, MDA-PCa-2b cells

[4] = target: T1, human CD3ε in the TCR/CD3 complex on …; assay: flow cytometry on Jurkat cells, PE goat anti-human IgG Fc secondary, MFI (median)
[5] = target: T1, human CD3ε in the TCR/CD3 complex on …; assay: flow cytometry on Jurkat cells, MFI (median)
[6] = target: T3, Human PSMA ECD-AFH (TSC033), recombinant dimeric PSMA ECD (human, UniProt Q04609 44-750); assay: SPR (Biacore T200), human PSMA dimer ECD 10X His (TSC033), 1:1 fit
T3 construct: SEC-purified dimer; also called HuPSMA-AFH; Avi-His-Human PSMA ECD

mIgG Fc-human PSMA ECD = target: T4, mIgG Fc-human PSMA ECD (human); assay: SPR (Biacore T200), bispecific amine-coupled, mFc-PSMA dimer 1-81 nM as analyte, 1:1 fit
T4 construct: Called PSMA dimer in the SPR method; also called mFc-Hu PSMA ECD; murine Fc-tagged human PSMA ECD
Protocol: (§1) SPR studies were performed on a subset of bispecific constructs binding to Human and cynomolgus primate PSMA ectodomain (ECD) fused to the c-terminus of a murine IgG1 Fc region. These experiments were conducted at 25° C. in dPBS (Gibco, 14040-133) with 0.2% BSA buffer on a Biacore T200 system. Bispecific constructs were immobilized at a density of ˜2,000-4,000 response units (RU) onto individual flow cells of a CM5 research-grade sensor chip (GE) by standard amine coupling chemistry, leaving one flow cell surface unmodified as the reference. Using a multi-cycle kinetics mode, a buffer blank and […] different concentrations of the PSMA dimer ranging from 1 nM to 81 nM in dPBS with 0.2% BSA were sequentially injected through each flow cell at 30 μL/min for 300 seconds followed by a 600 second dissociation phase. Regeneration was achieved by injection of 10 mM glycine pH 2.0 at a flow rate of 30 μL/min for 40 seconds followed by dPBS with 0.2% BSA buffer stabilization for 1 min.
(§2) Sensorgrams obtained from kinetic SPR measurements were analyzed by the double subtraction method. The signal from the reference flow cell was subtracted from the analyte binding response obtained from flow cells with captured ligands. The buffer blank response was then subtracted from analyte binding responses and the final double-referenced data were analyzed with Biacore T200 Evaluation software (2.0, GE), globally fitting data to derive kinetic parameters. All sensorgrams were fitted using a simple one-to-one binding model.

mIgG Fc-cyno PSMA ECD = target: T5, mIgG Fc-cyno PSMA ECD (cynomolgus monkey); assay: as above
T5 construct: Called PSMA dimer in the SPR method; also called mFc-Cyno PSMA ECD; murine Fc-tagged cyno PSMA ECD
T5 chain: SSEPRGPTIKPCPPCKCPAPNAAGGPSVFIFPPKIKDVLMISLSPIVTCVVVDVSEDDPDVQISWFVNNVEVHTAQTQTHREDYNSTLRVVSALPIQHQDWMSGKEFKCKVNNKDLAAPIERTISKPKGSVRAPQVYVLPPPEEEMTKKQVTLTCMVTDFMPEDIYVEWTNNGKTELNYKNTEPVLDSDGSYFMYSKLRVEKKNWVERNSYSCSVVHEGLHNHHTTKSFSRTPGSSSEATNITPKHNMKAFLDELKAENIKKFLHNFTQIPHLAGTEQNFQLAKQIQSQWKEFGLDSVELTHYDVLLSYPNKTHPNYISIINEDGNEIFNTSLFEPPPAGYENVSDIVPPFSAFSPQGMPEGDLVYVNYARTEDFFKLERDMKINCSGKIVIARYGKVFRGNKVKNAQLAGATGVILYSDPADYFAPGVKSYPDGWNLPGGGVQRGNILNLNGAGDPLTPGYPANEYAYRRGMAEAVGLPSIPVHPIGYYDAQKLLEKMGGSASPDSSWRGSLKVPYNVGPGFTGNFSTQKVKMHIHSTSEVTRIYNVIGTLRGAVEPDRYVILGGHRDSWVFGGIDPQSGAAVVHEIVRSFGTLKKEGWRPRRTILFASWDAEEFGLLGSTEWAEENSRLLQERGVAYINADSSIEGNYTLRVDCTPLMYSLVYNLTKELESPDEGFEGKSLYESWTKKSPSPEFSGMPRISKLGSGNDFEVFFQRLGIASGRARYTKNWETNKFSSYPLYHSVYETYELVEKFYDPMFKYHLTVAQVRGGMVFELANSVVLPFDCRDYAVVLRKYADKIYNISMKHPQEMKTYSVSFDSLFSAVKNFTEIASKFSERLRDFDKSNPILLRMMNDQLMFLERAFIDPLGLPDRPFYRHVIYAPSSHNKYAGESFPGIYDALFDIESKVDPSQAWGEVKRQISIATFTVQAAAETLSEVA
Protocol: as §1, §2

T1 sequence (P07766 23-207, one chain of several): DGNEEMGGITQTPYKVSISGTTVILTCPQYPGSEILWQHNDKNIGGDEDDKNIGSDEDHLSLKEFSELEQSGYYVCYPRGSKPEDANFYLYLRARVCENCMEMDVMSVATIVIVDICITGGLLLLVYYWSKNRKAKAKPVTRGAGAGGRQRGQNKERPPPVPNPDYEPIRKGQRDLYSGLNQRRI
T3 sequence (Q04609 other isoform, or with tags, fused parts or gaps): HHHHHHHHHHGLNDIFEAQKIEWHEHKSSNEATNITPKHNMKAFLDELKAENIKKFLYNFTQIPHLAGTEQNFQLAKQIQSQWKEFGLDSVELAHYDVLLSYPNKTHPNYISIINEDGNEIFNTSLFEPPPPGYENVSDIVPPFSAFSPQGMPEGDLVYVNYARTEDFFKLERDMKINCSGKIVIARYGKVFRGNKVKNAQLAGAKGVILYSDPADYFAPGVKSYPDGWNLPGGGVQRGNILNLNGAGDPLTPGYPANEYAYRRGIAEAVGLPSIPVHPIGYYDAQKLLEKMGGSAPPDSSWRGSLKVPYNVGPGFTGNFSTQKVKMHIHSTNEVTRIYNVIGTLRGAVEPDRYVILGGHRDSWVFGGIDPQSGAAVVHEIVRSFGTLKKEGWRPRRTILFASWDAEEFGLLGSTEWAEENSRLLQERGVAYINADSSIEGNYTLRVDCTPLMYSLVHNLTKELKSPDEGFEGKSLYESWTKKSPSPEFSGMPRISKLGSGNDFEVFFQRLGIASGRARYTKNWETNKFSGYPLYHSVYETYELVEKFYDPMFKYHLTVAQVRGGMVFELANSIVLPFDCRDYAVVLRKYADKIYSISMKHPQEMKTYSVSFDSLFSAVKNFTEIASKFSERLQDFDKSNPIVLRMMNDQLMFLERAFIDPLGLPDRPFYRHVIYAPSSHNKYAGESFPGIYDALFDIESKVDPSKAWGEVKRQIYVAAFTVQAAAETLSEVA
T2 sequence (Q04609 whole entry): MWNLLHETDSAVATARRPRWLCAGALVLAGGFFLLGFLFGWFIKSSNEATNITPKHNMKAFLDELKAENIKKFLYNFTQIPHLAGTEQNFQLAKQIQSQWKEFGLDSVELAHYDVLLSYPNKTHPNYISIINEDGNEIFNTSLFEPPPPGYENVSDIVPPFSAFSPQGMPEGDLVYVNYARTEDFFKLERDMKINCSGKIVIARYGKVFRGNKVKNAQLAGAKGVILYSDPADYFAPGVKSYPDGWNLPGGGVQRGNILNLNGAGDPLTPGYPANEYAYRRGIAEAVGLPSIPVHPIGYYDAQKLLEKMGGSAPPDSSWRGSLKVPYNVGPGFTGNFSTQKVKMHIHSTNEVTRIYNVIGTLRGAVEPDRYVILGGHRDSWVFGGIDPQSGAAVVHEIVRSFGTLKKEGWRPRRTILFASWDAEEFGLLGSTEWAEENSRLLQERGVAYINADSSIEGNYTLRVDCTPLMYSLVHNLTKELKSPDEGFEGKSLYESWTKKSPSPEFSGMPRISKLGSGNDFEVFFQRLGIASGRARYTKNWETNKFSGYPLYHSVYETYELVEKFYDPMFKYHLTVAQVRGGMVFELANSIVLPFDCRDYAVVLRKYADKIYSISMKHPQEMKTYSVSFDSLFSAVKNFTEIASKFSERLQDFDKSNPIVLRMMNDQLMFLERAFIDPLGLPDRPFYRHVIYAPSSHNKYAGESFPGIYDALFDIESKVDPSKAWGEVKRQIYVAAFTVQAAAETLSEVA

fold decrease in T-cell activation and proliferation [1] [fold] | fold reduction in binding potency against PSMA01072 [2] [fold] | EC50 [3] [nM] | EC50 [4] [nM] | binding result [5] | Kd [6] [nM] | Kd (mIgG Fc-human PSMA ECD) [nM] | Kd (mIgG Fc-cyno PSMA ECD) [nM] | Binder | cytotoxic activity [1] [fold]
~3 | ~200 | 1 | > 204 |  |  |  |  | PSMA01071 Anti PSMA scFv x Fc; Anti PSMA scFv x Fc x Anti CD3 scFv (bispecific antibody) chain 1: QVQLVQSGAEVKKPGASVKVSCKASGYTFTDYYMHWVRQAPGQGLEWMGYFNPYNDYTRYAQKFQGRVTMTRDTSTSTVYMELSSLRSEDTAVYYCARSDGYYDAMDYWGQGTTVTVSSGGGGSGGGGSGGGGSGGGGSDIQMTQSPSSLSASVGDRVTITCRASKSISKYLAWYQQKPGKAPKLLIHSGSSLESGVPSRFSGSGSGTEFTLTISSLQPDDFATYYCQQHIEYPWTFGQGTKVEIKEPKSSDKTHTCPPCPAPPAAAPSVFLFPPKPKDTLMISRTPEVTCVVVDVSHEDPEVKFNWYVDGVEVHNAKTKPREEQYNSTYRVVSVLTVLHQDWLNGKEYKCAVSNKALPAPIEKTISKAKGQPREPQVYTLPPSRDELTKNQVSLWCLVKGFYPSDIAVEWESNGQPENNYKTTPPVLDSDGSFFLYSKLTVDKSRWQQGNVFSCSVMHEALHNHYTQKSLSLSPG chain 2: QVQLVQSGAEVKKPGASVKVSCKASGYTFTDYYMHWVRQAPGQGLEWMGYFNPYNDYTRYAQKFQGRVTMTRDTSTSTVYMELSSLRSEDTAVYYCARSDGYYDAMDYWGQGTTVTVSSGGGGSGGGGSGGGGSGGGGSDIQMTQSPSSLSASVGDRVTITCRASKSISKYLAWYQQKPGKAPKLLIHSGSSLESGVPSRFSGSGSGTEFTLTISSLQPDDFATYYCQQHIEYPWTFGQGTKVEIKEPKSSDKTHTCPPCPAPPAAAPSVFLFPPKPKDTLMISRTPEVTCVVVDVSHEDPEVKFNWYVDGVEVHNAKTKPREEQYNSTYRVVSVLTVLHQDWLNGKEYKCAVSNKALPAPIEKTISKAKGQPREPQVYTLPPSRDELTKNQVSLSCAVKGFYPSDIAVEWESNGQPENNYKTTPPVLDSDGSFFLVSKLTVDKSRWQQGNVFSCSVMHEALHNRFTQKSLSLSPGGGGSPSQVQLVQSGAEVKKPGASVKVSCKASGYTFTRSTMHWVRQAPGQGLEWIGYINPSSAYTNYAQKFQGRVTLTADKSTSTAYMELSSLRSEDTAVYYCASPQVHYDYNGFPYWGQGTLVTVSSGGGGSGGGGSGGGGSGGGGSDIQMTQSPSSLSASVGDRVTITCRASSSVSYMNWYQQKPGKAPKRWIYDSSKLASGVPSRFSGSGSGTDFTLTISSLQPEDFATYYCQQWSRNPPTFGQGTKVEIKRS | ~10
 |  |  |  | binds | 5.2 | 4.1 | 6.2 | PSMA01116 Anti-PSMA scFv x Fc x linker x Anti CD3 scFv; Anti PSMA scFv x Fc (bispecific antibody, Heterodimer, bivalent for PSMA and monovalent for CD3; also called PSM01116) chain 1: QVQLVQSGAEVKKPGASVKVSCKASGYTFTDYYMHWVRQAPGQGLEWMGYFNPYNDYTRYAQKFQGRVTMTRDTSTSTVYMELSSLRSEDTAVYYCARSDGYYDAMDYWGQGTTVTVSSGGGGSGGGGSGGGGSGGGGSDIQMTQSPSSLSASVGDRVTITCRASKSISKYLAWYQQKPGKAPKLLIHSGSSLESGVPSRFSGSGSGTEFTLTISSLQPDDFATYYCQQHIEYPWTFGQGTKVEIKEPKSSDKTHTCPPCPAPPAAAPSVFLFPPKPKDTLMISRTPEVTCVVVDVSHEDPEVKFNWYVDGVEVHNAKTKPREEQYNSTYRVVSVLTVLHQDWLNGKEYKCAVSNKALPAPIEKTISKAKGQPREPQVYTLPPSRDELTKNQVSLWCLVKGFYPSDIAVEWESNGQPENNYKTTPPVLDSDGSFFLYSKLTVDKSRWQQGNVFSCSVMHEALHNHYTQKSLSLSPGGGGSPSQVQLVQSGAEVKKPGASVKVSCKASGYTFTRSTMHWVRQAPGQGLEWIGYINPSSAYTNYAQKFQGRVTLTADKSTSTAYMELSSLRSEDTAVYYCASPQVHYDYNGFPYWGQGTLVTVSSGGGGSGGGGSGGGGSGGGGSDIQMTQSPSSLSASVGDRVTITCRASSSVSYMNWYQQKPGKAPKRWIYDSSKLASGVPSRFSGSGSGTDFTLTISSLQPEDFATYYCQQWSRNPPTFGQGTKVEIK chain 2: QVQLVQSGAEVKKPGASVKVSCKASGYTFTDYYMHWVRQAPGQGLEWMGYFNPYNDYTRYAQKFQGRVTMTRDTSTSTVYMELSSLRSEDTAVYYCARSDGYYDAMDYWGQGTTVTVSSGGGGSGGGGSGGGGSGGGGSDIQMTQSPSSLSASVGDRVTITCRASKSISKYLAWYQQKPGKAPKLLIHSGSSLESGVPSRFSGSGSGTEFTLTISSLQPDDFATYYCQQHIEYPWTFGQGTKVEIKEPKSSDKTHTCPPCPAPPAAAPSVFLFPPKPKDTLMISRTPEVTCVVVDVSHEDPEVKFNWYVDGVEVHNAKTKPREEQYNSTYRVVSVLTVLHQDWLNGKEYKCAVSNKALPAPIEKTISKAKGQPREPQVYTLPPSRDELTKNQVSLSCAVKGFYPSDIAVEWESNGQPENNYKTTPPVLDSDGSFFLVSKLTVDKSRWQQGNVFSCSVMHEALHNHYTQKSLSLSPG | 
